Experimental data reported in patent publication US20230097573A1 (LG CHEM, published 2023).

Tests used:
Hu FcRn (BPS Bioscience) [1] = target: T1, Hu FcRn (BPS Bioscience) (human, UniProt P55899 24-297; P61769 21-119); assay: optimized ELISA on FcRn, pH 6
T1 construct: Bought recombinant protein coated on ELISA plates; also called human FcRn; human neonatal Fc receptor

Hu FcRn (BPS Bioscience) [2] = target: T1, Hu FcRn (BPS Bioscience); assay: optimized ELISA on FcRn, pH 7.4
hFcRn with a His-tag [3] = target: T2, hFcRn with a His-tag (human, UniProt P55899 24-297; P61769 21-119); assay: BLI (Octet); ratio of KD at pH 7.4 to KD at pH 6.0
T2 construct: It may be the same product as m1; also called huFcRn (His tagged molecule, BPS); not shown: His-tag
T2 sequence (P55899 24-297 limits assumed, chain 1 of 2): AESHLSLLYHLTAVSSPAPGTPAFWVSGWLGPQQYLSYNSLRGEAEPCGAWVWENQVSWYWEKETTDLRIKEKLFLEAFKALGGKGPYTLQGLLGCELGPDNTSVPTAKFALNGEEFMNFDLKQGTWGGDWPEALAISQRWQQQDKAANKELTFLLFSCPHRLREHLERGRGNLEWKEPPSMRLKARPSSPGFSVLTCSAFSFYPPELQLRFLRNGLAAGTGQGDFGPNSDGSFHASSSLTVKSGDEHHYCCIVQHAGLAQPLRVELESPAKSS
T2 sequence (P61769 21-119 limits assumed, chain 2 of 2): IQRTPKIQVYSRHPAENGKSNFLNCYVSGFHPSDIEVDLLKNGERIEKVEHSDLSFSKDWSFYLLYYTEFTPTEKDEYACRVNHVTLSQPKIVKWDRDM
Description: (§1) A BLI (Bio-Layer Interferometry)-based binding assay was performed for AFFIMER® screening in which the affinity to FcRn varies depending on the pH. hFcRn with a His-tag was fixed to a Ni-NTA biosensor. Thereafter, in the hFcRn and the AFFIMER® candidate group, Ni²⁺ not bound to the hFcRn was blocked using His-SQT-gly with a high concentration, in which reactivity is absent. Then, the AFFIMER® candidate group diluted to the same concentration was reacted with the hFcRn. All affimers were analyzed at pH 6.0 and pH 7.4, and KD was determined with a 1:1 binding model.

hFcRn with a His-tag [4] = target: T2, hFcRn with a His-tag; assay: BLI (Octet), His-hFcRn on Ni-NTA biosensor, Affimer 40 nM, pH 6.0
Description: as §1

hFcRn with a His-tag [5] = target: T2, hFcRn with a His-tag; assay: BLI (Octet), His-hFcRn on Ni-NTA biosensor, Affimer 40 nM, pH 7.4
Description: as §1

hFcRn with a His-tag [6] = target: T2, hFcRn with a His-tag; assay: BLI (Octet), His-hFcRn on Ni-NTA biosensor, Affimer 40 nM, pH 6.0, 1:1 model
Description: as §1

hFcRn with a His-tag [7] = target: T2, hFcRn with a His-tag; assay: BLI (Octet), His-hFcRn on Ni-NTA biosensor, Affimer 40 nM, pH 7.4, 1:1 model
Description: as §1

Hu FcRn (BPS Bioscience) [8] = target: T1, Hu FcRn (BPS Bioscience); assay: ELISA, huFcRn coated, pH 6
Description: The binding of AFFIMER® to Hu-FcRn was evaluated by enzyme linked immunosorbent assay (ELISA) in 384 well plate format. Hu FcRn (BPS Bioscience) was coated at 5 μg/ml on the plate in 40 mM MES, pH 6. Plates were washed 3 times with 100 μl of washing buffer (PBS, Tween 20 0.05%, pH 6) with a plate washer and saturated with Casein 5% (Sigma) in MES pH6 for 60 minutes at room temperature (25±1° C.). Plates were washed as described previously. AFFIMER® and negative controls (mAb anti hFcRn (clone ADM31), negative controls) were then diluted in duplicate, and loaded on the plate for 90 minutes at room temperature (25±1° C.). Plates were washed 3 times as described previously. Biotinylated polyclonal antibody anti Cystatin (R&D Systems) was then diluted in dilution Buffer (1% casein, 0.05% Tween 20, and 8 mM MES. It is in pH6) and incubated 60 minutes at room temperature (25±1° C.). Plates were washed 3 times as described previously and Streptavidin HRP (N200, thermo-Fisher) was incubated for 30 minutes at room temperature (25±1° C.). Plates were washed and the substrate (TMB, Pierce Thermo-Scientific) was added in the plate for 8±1 minute. The reaction was stopped using an acidic solution and plates were read at 450-630 nm. The EC50 was then calculated using the interpolated non-linear four-parameters standard curve (Table 4).

Hu FcRn (BPS Bioscience) [9] = target: T1, Hu FcRn (BPS Bioscience); assay: ELISA, huFcRn coated, purified Affimer, pH 6
Description: The binding of AFFIMER® to hu-FcRn was evaluated by enzyme linked immunosorbent assay (ELISA) in 384 well plate format. Hu FcRn (BPS Bioscience) was coated at 5 μg/ml on the plate in 40 mM MES, pH 6. Plates were washed 3 times with 100 ul of washing buffer (PBS, Tween 20 0.05%, pH 6) with a plate washer and saturated with Casein 5% (Sigma) in MES pH 6 for 60 minutes at room temperature (25±1° C.). Plates were washed as described previously. AFFIMER® and negative controls (mAb anti hFcRn (clone ADM31), negative controls) were then diluted in duplicate, and loaded on the plate for 90 minutes at room temperature (25±1° C.). Plates were washed 3 times as described previously. Biotinylated polyclonal antibody anti Cystatin (R&D Systems) was then diluted in dilution buffer (1% casein, 0.05% Tween 20, and 8 mM MES, pH 6) and incubated 60 minutes at room temperature (25±1° C.). Plates were washed 3 times as described previously and Streptavidin HRP (N200, Thermo-Fisher) was incubated for 30 minutes at room temperature (25±1° C.). Plates were washed and the substrate (TMB, Pierce Thermo-Scientific) was added in the plate for 8±1 minute. The reaction was stopped using an acidic solution and plates were read at 450-630 nm. The EC₅₀ was then calculated using the interpolated non-linear four-parameters standard curve (FIGS. 5A-5B and Table 5A).

T1 sequence (P55899 24-297 limits assumed, chain 1 of 2): as the sequence (P55899 24-297 limits assumed, chain 1 of 2) above
T1 sequence (P61769 21-119 limits assumed, chain 2 of 2): as the sequence (P61769 21-119 limits assumed, chain 2 of 2) above

| Binder | EC50 (Hu FcRn (BPS Bioscience) [1]) [nM] | EC50 (Hu FcRn (BPS Bioscience) [2]) [nM] | pH 7.4/pH 6.0 (KD ratio) (hFcRn with a His-tag [3]) | Response (hFcRn with a His-tag [4]) | Response (hFcRn with a His-tag [5]) | Kd (hFcRn with a His-tag [6]) [nM] | Kd (hFcRn with a His-tag [7]) [nM] | EC50 (Hu FcRn (BPS Bioscience) [8]) [nM] | EC50 (Hu FcRn (BPS Bioscience) [9]) [nM] |
| --- | --- | --- | --- | --- | --- | --- | --- | --- | --- |
| FcRn-88 (designed binder, AFFIMER (stefin A variant)) MIPRGLSEAKPATPEIQEIVDKVKPQLEEKTNETYGKLEAVQYKTQVLAHHTKHHSRWSTNYYIKVRAGDNKYMHLKVFNGPVNHISHAPIADRVLTGYQVDKNKDDELTGFHHHHHH | 967 | 23300 | 4.4 | 1.12 | 0.71 | 18.7 | 82.8 |  |  |
| FcRn-15 (designed binder, also called LGC01-15) MIPRGLSEAKPATPEIQEIVDKVKPQLEEKTNETYGKLEAVQYKTQVLAHNHRHYSKGSTNYYIKVRAGDNKYMHLKVFNGPAFNDGAVFIADRVLTGYQVDKNKDDELTGFHHHHHH |  |  |  |  |  |  |  | 74.1 |  |
| FcRn-18 (designed binder, AFFIMER (stefin A variant)) MIPRGLSEAKPATPEIQEIVDKVKPQLEEKTNETYGKLEAVQYKTQVLAETPHERHKTSTNYYIKVRAGDNKYMHLKVFNGPKRWLKHHAHADRVLTGYQVDKNKDDELTGFHHHHHH | 327 | 19700 |  | 1.2 | 0.794 | 16 | 65 |  |  |
| FcRn-16 (designed binder, AFFIMER (stefin A variant)) MIPRGLSEAKPATPEIQEIVDKVKPQLEEKTNETYGKLEAVQYKTQVLAKHHHHKHQHSTNYYIKVRAGDNKYMHLKVFNGPVFLHNESHQADRVLTGYQVDKNKDDELTGFHHHHHH | 1020 | 48600 |  | 1.07 | 0.631 | 20.5 | 83.3 |  |  |
| FcRn-109 (designed binder, AFFIMER (stefin A variant)) MIPRGLSEAKPATPEIQEIVDKVKPQLEEKTNETYGKLEAVQYKTQVLARPHNRDSHRSTNYYIKVRAGDNKYMHLKVFNGPDRKHRKHWHADRVLTGYQVDKNKDDELTGFHHHHHH | 570 | 15700 | 6.6 | 1.16 | 0.602 | 9.27 | 61.2 |  |  |
| FcRn-120 (designed binder, AFFIMER (stefin A variant)) MIPRGLSEAKPATPEIQEIVDKVKPQLEEKTNETYGKLEAVQYKTQVLAKHKYHHTGHSTNYYIKVRAGDNKYMHLKVFNGPGQIHKVRSTADRVLTGYQVDKNKDDELTGFHHHHHH |  |  |  |  |  |  |  |  | 50.5 |
| FcRn-48 (designed binder, AFFIMER (stefin A variant)) MIPRGLSEAKPATPEIQEIVDKVKPQLEEKTNETYGKLEAVQYKTQVLAKPKYHHHDISTNYYIKVRAGDNKYMHLKVFNGPGHHAKPHRWADRVLTGYQVDKNKDDELTGFHHHHHH | 1500 | 79900 | 6.8 | 1.44 | 0.803 | 8.76 | 59.3 |  |  |
| FcRn-176 (designed binder, AFFIMER (stefin A variant)) MIPRGLSEAKPATPEIQEIVDKVKPQLEEKTNETYGKLEAVQYKTQVLAGRHHESHKSSTNYYIKVRAGDNKYMHLKVFNGPFQHKLHKHHADRVLTGYQVDKNKDDELTGFHHHHHH | 4480 | 78900 | 5.5 | 1.02 | 0.595 | 10.5 | 57.9 |  |  |
| FcRn-12 (designed binder, AFFIMER (stefin A variant)) MIPRGLSEAKPATPEIQEIVDKVKPQLEEKTNETYGKLEAVQYKTQVLAKVKTHDHQRSTNYYIKVRAGDNKYMHLKVFNGPIHQHHSQDWADRVLTGYQVDKNKDDELTGFHHHHHH | 262 | 15700 | 4.3 | 0.836 | 0.582 | 28.4 | 123 |  |  |
| FcRn-125 (designed binder, AFFIMER (stefin A variant)) MIPRGLSEAKPATPEIQEIVDKVKPQLEEKTNETYGKLEAVQYKTQVLADHRPRHPKHSTNYYIKVRAGDNKYMHLKVFNGPAHKHHLGFKADRVLTGYQVDKNKDDELTGFHHHHHH |  |  |  |  |  |  |  |  | 187 |
